Assay results published in US20120190039A1 (MOUNT SINAI HOSPITAL, published 2012).

How the values were obtained:
[1] = molecular target: B-RAF_L487R (human B-RAF kinase domain, residues 448-723) (human) (UniProt P15056); assay: analytical ultracentrifugation, equilibrium sedimentation, self-association
[2] = molecular target: B-RAF_L487R/E558K (human B-RAF kinase domain, residues 448-723) (human) (UniProt P15056); assay: as above
[3] = molecular target: B-RAF_R481H (human B-RAF kinase domain, residues 448-723) (human) (UniProt P15056); assay: as above
[4] = molecular target: MEK (overexpressed in S2 cells) (UniProt Q24324 1-396); assay: co-immunoprecipitation from S2 cells
Chain of MEK (overexpressed in S2 cells) (Q24324 whole entry): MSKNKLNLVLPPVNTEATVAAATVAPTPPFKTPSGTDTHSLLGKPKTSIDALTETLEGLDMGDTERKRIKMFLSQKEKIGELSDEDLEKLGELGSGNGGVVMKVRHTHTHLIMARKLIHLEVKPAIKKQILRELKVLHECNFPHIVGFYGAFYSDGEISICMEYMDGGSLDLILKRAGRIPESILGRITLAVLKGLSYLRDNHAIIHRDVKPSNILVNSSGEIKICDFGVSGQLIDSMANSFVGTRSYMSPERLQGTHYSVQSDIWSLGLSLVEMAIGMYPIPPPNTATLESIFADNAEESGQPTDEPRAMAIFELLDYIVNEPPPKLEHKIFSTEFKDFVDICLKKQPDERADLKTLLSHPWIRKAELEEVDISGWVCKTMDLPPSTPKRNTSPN
Method: S2 cells were maintained in serum-free insect cell medium (Sigma) at 27° C. Cells were seeded at a density of 1.75×10⁶ cells/ml 24 h prior to transfection. Between 10 to 300 ng (or up to 900 ng for KSR_R732H) of DNA was transfected per construct using Effectene (Qiagen). dsRNAs were produced and used in RNAi experiments as described (Roy, F., Laberge, G., Douziech, M., Ferland-McCollough, D. & Therrien, M. KSR is a scaffold required for activation of the ERK/MAPK module. Genes Dev 16, 427-38 (2002)). Protein expression was induced by adding CuSO₄ (0.7 mM) 36 h before harvesting the cells. For FRB/FKBP-mediated dimer formation, rapamycin (Sigma) was added ([…]) to the medium 2 h prior to harvesting the cells. Lysates, immunoprecipitations, western blot procedures and antibodies were essentially as previously described (Douziech, M., Sahmi, M., Laberge, G. & Therrien, M. A, KSR/CNK complex mediated by HYP, a novel SAM domain-containing protein, regulates RAS-dependent RAF activation in Drosophila, Genes Dev, 20, 807-19 (2006)).

An average molecular weight (global self association fit) [1] of 48600 Da and a ratio of the observed average MW to the theoretical MW of the monomer [1] of 1.5 were found for “B-RAF_L487R (human B-RAF kinase domain, residues 448-723) (from UniProt P15056 448-723) (enzyme)” in this work.

An average molecular weight (global self association fit) [2] of 55500 Da and a ratio of the observed average MW to the theoretical MW of the monomer [2] of 1.8 were found for “B-RAF_L487R/E558K (human B-RAF kinase domain, residues 448-723) (from UniProt P15056 448-723) (enzyme)” in this work.

An average molecular weight (global self association fit) [3] of 34500 Da and a ratio of the observed average MW to the theoretical MW of the monomer [3] of 1.1 were found for “B-RAF_R481H (human B-RAF kinase domain, residues 448-723) (from UniProt P15056 448-723) (enzyme)” in this work.

B1: KSR-RAF chimera-A (KSR 1-665 fused to RAF 417-739, K455M) (other)
chain: MSSNNNAPASAPDTGSTNANDPISGSLSVDSNLVIIQDMIDLSANHLEGLRTQCAISSTLTQQEIRCLESKLVRYFSELLLAKMRLNERIPANGLVPHTTGNELRQWLRVVGLSQGTLTACLARLTTLEQSLRLSDEEIRQLLADSPSQREEEELRRLTRAMQNLRKCMESLESGTAASNNDPEQWHWDSWDRPTHIHRGSVGNIGLGNNSTASPRTHHRQHGVKGKNSALANSTNFKSGRQSPSATEELNSTQGSQLTLTLTPSPPNSPFTPSSGLSSSLNGTPQRSRGTPPPARKHQTLLSQSHVQVDGEQLARNRLPTDPSPDSHSSTSSDIFVDPNTNASSGGSSSNVLMVPCSPGVGHVGMGHAIKHRFTKALGFMATCTLCQKQVFHRWMKCTDCKYICHKSCAPHVPPSCGLPREYVDEFRHIKEQGGYASLPHVHGAAKGSPLVKKSTLGKPLHQQHGDSSSPSSSCTSSTPSSPALFQQRERELDQAGSSSSANLLPTPSLGKHQPSQFNFPNVTVTSSGGSGGVSLISNEPVPEQFPTAPATANGGLDSLVSSSNGHMSSLIGSQTSNASTAATLTGSLVNSTTTTSTCSFFPRKLSTAGVDKRTPFTSEYTDTHKSNDSDKTVSLSGSASTDSDRTPVRVDSTEDGDSGQWRQNSSEENWNILAEEILIGPRIGSGSFGTVYRAHWHGPVAVMTLNVKTPSPAQLQAFKNEVAMLKKTRHCNILLFMGCVSKPSLAIVTQWCEGSSLYKHVHVSETKFKLNTLIDIGRQVAQGMDYLHAKNIIHRDLKSNNIFLHEDLSVKIGDFGLATAKTRWSGEKQANQPTGSILWMAPEVIRMQELNPYSFQSDVYAFGIVMYELLAECLPYGHISNKDQILFMVGRGLLRPDMSQVRSDAPQALKRLAEDCIKYTPKDRPLFRPLLNMLENMLRTLPKIHRSASEPNLTQSQLQNDEFLYLPSPKTPVNFNNFQFFGSAGNI
B1: no binding [4].
